In publication PMC3523363 (Journal of medicinal chemistry, 2012):

Experiments:
Spectroscopic studies = format: physicochemical; details: in DMF; for фF (fluorescence quantum yield): calculated using ZnPc (Фf = 0.17) as the standard; for Emission: excitation at 670 nm
Vero cells = assay: Phototoxicity, Cell Titer Blue assay; format: cell-based, cercopithecus aethiops; details: 24 h
HT-29 cells = assay: Phototoxicity, Cell Titer Blue assay; format: cell-based, human; details: 24 h
A431 cells = assay: Phototoxicity, Cell Titer Blue assay; format: cell-based, human; details: 24 h
HT-29 s.c. tumors = assay: In vivo near-IR fluorescence imaging of s.c. tumor xenografts; parameters: species or system nude mice; details: HT-29 s.c. tumor, 10 mg/kg iv, up to 96 h
HEp2 cells = assay: Phototoxicity, Cell Titer Blue assay; format: cell-based, human; details: 24 h
A431 s.c. tumors = assay: In vivo near-IR fluorescence imaging of s.c. tumor xenografts; parameters: species or system nude mice; details: 10 mg/kg iv, up to 96 h
[1] = in DMF; cited from earlier work
EGFR = EGFR (Homo sapiens, UniProt P00533); assay: Surface plasmon resonance; format: binding; details: EGFR immobilized on CM5 chip, 25 °C

CC[C@H](C)[C@H](NC(=O)[C@@H](NC(=O)[C@H](CC(N)=O)NC(=O)[C@H](CCC(N)=O)NC(=O)[C@@H]1CCCN1C(=O)[C@@H](NC(=O)[C@H](Cc1ccc(O)cc1)NC(=O)CNC(=O)[C@H](Cc1ccc(O)cc1)NC(=O)[C@H](Cc1c[nH]c2ccccc12)NC(=O)[C@H](Cc1c[nH]cn1)NC(=O)[C@H](Cc1ccc(O)cc1)NC(=O)CNC(=O)COCC(=O)Nc1ccc(Oc2ccc3c4nc5nc(nc6[nH]c(nc7nc(nc([nH]4)c3c2)-c2cc(C(C)(C)C)ccc2-7)c2ccc(C(C)(C)C)cc62)-c2ccc(C(C)(C)C)cc2-5)cc1)[C@@H](C)O)C(C)C)C(N)=O [Pc 4b]
Stokes' Shift (Spectroscopic studies): 4 nm | ε (Spectroscopic studies): 4.85 M⁻¹ cm⁻¹ | Absorption (Spectroscopic studies; Q band): 677 nm | фF (fluorescence quantum yield) (Spectroscopic studies): 0.10 | Emission (Spectroscopic studies): 681 nm

CC(C)C[C@H](NC(=O)CCOCCOCCOCCNC(=O)COCC(=O)Nc1ccc(Oc2ccc3c4nc5nc(nc6[nH]c(nc7nc(nc([nH]4)c3c2)-c2cc(C(C)(C)C)ccc2-7)c2ccc(C(C)(C)C)cc62)-c2ccc(C(C)(C)C)cc2-5)cc1)C(=O)N[C@@H](C)C(=O)N[C@@H](CCCNC(=N)N)C(=O)N[C@@H](CC(C)C)C(=O)N[C@@H](CC(C)C)C(=O)N[C@H](C(N)=O)[C@@H](C)O [Pc 5b]
IC50 (Vero cells): > 100 µM | IC50 (HT-29 cells): > 100 µM | IC50 (A431 cells): > 100 µM | ε (Spectroscopic studies): 5.27 M⁻¹ cm⁻¹ | фF (fluorescence quantum yield) (Spectroscopic studies): 0.11 | Emission (Spectroscopic studies): 682 nm | course of tumor fluorescence signal (HT-29 s.c. tumors): declined from 24 to 96 h | IC50 (HEp2 cells): > 100 µM | course of tumor fluorescence signal (A431 s.c. tumors): continued to increase to 96 h

[Zn+2].c1ccc2c(c1)-c1nc-2nc2[n-]c(nc3nc([n-]c4nc(n1)-c1ccccc1-4)-c1ccccc1-3)c1ccccc21 [ZnPc]
Фf (fluorescence quantum yield) of the reference [1]: 0.17

GYHWYGYTPQNVI [EGFR-L2]
relative binding affinity to EGFR (SPR) (EGFR): higher affinity for EGFR than EGFR-L1
